In paper PMC4569402:

Target: wild-type influenza B virus nucleoprotein (BNP), B/panama/45/1990 (influenza B virus (B/panama/45/1990))
Experiment: negative-stain electron microscopy

**Q.** Which stoichiometry N does the source give for “wild-type influenza B virus nucleoprotein (BNP), B/panama/45/1990 (natural protein)” here?
**A.** > 6
